Results on seven sequences are retold here after the DeepSol protein solubility set.

This data set is described as follows: soluble on expression in E. coli; label from the status in PepcDB or PDB records.
Take “MSLAQKRYKHILWDLDGTIIDSKIGVSESIRYCLKYFNIEVTCLDEFKPMIGPPLQDSLREIYNFSPQQVEIACKLYDEYYMKKGIHEYKVFQNIEKVLSQLQNDNKELYVATTKPEYAAKQLLADCKLDTYFKFIGGDNEEFTRSNKADVIQYVLSANNISATDNVVMIGDRKYDMLAAKKIGIDTIGVLYGYGDRNELLTNGAQYIIEEPYELLNLLKGEGHHHHHH”: the “soluble on expression in E. coli” value is “soluble”.

For “MNEAEHSVEHPPVQGSHVEGGVVEHPDAKDFGSAAALPADPTWFKHAVFYEVLVRAFFDASADGSGDLRGLIDRLDYLQWLGIDCIWLPPFYDSPLRDGGYDIRDFYKVLPEFGTVDDFVALVDAAHRRGIRIITDLVMNHTSESHPWFQESRRDPDGPYGDYYVWSDTSERYTDARIIFVDTEESNWSFDPVRRQFYWHRFFSHQPDLNYDNPAVQEAMIDVIRFWLGLGIDGFRLDAVPYLFEREGTNCENLPETHAFLKRVRKVVDDEFPGRVLLAEANQWPGDVVEYFGDPNTGGDECHMAFHFPLMPRIFMAVRRESRFPISEIIAQTPPIPDMAQWGIFLRNHDELTLEMVTDEERDYMYAEYAKDPRMKANVGIRRRLAPLLDNDRNQIELFTALLLSLPGSPVLYYGDEIGMGDVIWLGDRDGVRIPMQWTPDRNAGFSTANPGRLYLPPSQDPVYGYQAVNVEAQRDTSTSLLNFTRTMLAVRRRHPAFAVGAFQELGGSNPSVLAYVRQVAGDDGDTVLCVNNLSRFPQPIELDLQQWTNYTPVELTGHVEFPRIGQVPYLLTLPGHGFYWFQLTTHEVGAPPTCGGERRL”, the “soluble on expression in E. coli” value is given as “soluble”.

In the case of “MGSDKIHHHHHHMTLEHRWTGAISRLDLASGVLQQPDGDWVDEQLHHGTKVVVILRGAMRALIDGCGSEFSIAGPTVCVIRAPADASGRQMITADEPLHYVMVKAAFEPGSEADRERDPLAPLFCTDRPSLQHIEAPRALQALCTQLEVCPFVGAARDLFLSAKAIEILALACDAVETNIATETLRPSLGDVERLKKARAILLERLGAPPNLPALAAAVGMNPRKLTDGFQAAFGTTVNDFLQDARLNEAYRLLSSGATNVSEAAHRVGYTPAYFSAVFRKRFGISPRDLL”, the “soluble on expression in E. coli” value is reported as “not soluble”.

Consider “MTQDPHQTADILIIGGGLSGSMLAAQLLRRPGQRRILIIETRSELGRGEAYSATEPGHTLNGNAARMSVDPDNAHDLTEWLTGYLAEGGWPEAAEQKIPVAELFPPRGVFGLYVQQRLREAQVVGEGFGSTVGHVRAEAVDVQVSEQGVSVTLADGRELRGSQAVLATGMYAASRTPQRESNALNAASLDPWDVSVMQQLDPQTRVLIIGSGLTMVDALVSLEKAGHRGPIQVFSRHGLLPHVRRQPPEWSDFLAQDPSIRSTRQLVRKVREQCELAIESGIDWQAPLDTVRANVGRLWNQATDTQRRQFVRHVRPWWESHHHRSPPPSAALLARLVKQGRLSIEAASLQGVASLPSGQVQISVRRRGEHEPTHILGDALINSTGIEYDWRRVDRPLPRQLLARGLIQPGPLALGIAAAHDGAVLDAQGQRSAHLFAMGPPLRGMWWESTAVTDVAIQAKALAMRLALEHHHHHH”, for which the “soluble on expression in E. coli” value is “soluble”.

With “MGSDKIHHHHHHMRLDLFFDRLLSTEGDKLATVAKNTILEPSVAYFDFTASGLAYRTIEERIASILPRYANTHSEVTNHALFMTELYDEARANLKRHMDLDEEFALFPCGNGSTGAIKKFQELMGLYLPPRTQKRLSLTPDPALFPVVFVGPYEHHSNEVSYRESPCEVVRIPLDSRGLVDMGVLRAKLGEYQGREIITSFSLASNVTGIIIPYEEISALIRKAGGIVTFDMATASSYMNIPSKFFDAAFFSPHKLLGGVGSCGLLAMRKSLIDSTLPPTFAGGGTVTYVSRIDQYYREDPEYREDAGTPGVLQLLRASLAYQLRNEVGLEFIAKRKKELCAPLVEALRKMERVKIYGDIESCNRLGIFAINIEGISPYEVCQRLSREYLIETRAGCSCAGPYGHDLLGLKDDGLFASRPGWVRISVHYSHSLEQIERLLGALEEIARD”, the “soluble on expression in E. coli” value is recorded as “not soluble”.

With “SMFRDQVGVLAGWFKGWNECEQTVALLSLLKRVSQTQARFLQLCLEHSLADCAELHVLEREANSPGIINQWQQESKDKVISLLLTHLPLLKPGNLDAKVEYMKLLPKTLAHSIEHNQHIEESRQLLSYALIHPATSLEDRSALAMWLNHLEDRTSTSFGGQNRGRSDSVDYGQTHYYHQRQNSDDKLNGWQNSRDSGICINASNWQDKSMGCENGHVPLYSSSSVPTTINTIGTSTSTSKFPGIPLT”, the “soluble on expression in E. coli” value is “soluble”.

As for “MELMIGRVVKSHGIRGEVAIEVTTEEPEIRFAQGEVLNGRQGGKEHSLTIASVRPHQNRLLVKFKEIADRTAADSLRGTRFFAAPLDDDVDDGFYDHELEGLAVIHGEEKIGEVSGVIHGPAQSLLEVTLESGKEVLIPFVHDIVPEVDLDAGTCVITPPEGLLELLEHHHHHH”, the “soluble on expression in E. coli” value is “soluble”.
